Laboratory results reported in patent US20220227866A1 (VELOSBIO, published 2022).
Where “and” joins values, the source holds several entries; their conditions need not be identical. Equal entries are not always repeated.

Legend:
[1] = target: T1, recombinant human ROR1 extracellular domain (human, UniProt Q01973 30-406); test: ELISA, Fab titrated on immobilized human ROR1
T1 construct: Bought (Acro Biosystems cat. R01-H522Y); whole entry named; also called ROR1-ECD; immobilized ROR1

human ROR1 on cells [2] = target: T2, human ROR1 on cells (human, UniProt Q01973 30-937); test: cell-based or functional assay
T2 sequence (Q01973 30-937 limits assumed): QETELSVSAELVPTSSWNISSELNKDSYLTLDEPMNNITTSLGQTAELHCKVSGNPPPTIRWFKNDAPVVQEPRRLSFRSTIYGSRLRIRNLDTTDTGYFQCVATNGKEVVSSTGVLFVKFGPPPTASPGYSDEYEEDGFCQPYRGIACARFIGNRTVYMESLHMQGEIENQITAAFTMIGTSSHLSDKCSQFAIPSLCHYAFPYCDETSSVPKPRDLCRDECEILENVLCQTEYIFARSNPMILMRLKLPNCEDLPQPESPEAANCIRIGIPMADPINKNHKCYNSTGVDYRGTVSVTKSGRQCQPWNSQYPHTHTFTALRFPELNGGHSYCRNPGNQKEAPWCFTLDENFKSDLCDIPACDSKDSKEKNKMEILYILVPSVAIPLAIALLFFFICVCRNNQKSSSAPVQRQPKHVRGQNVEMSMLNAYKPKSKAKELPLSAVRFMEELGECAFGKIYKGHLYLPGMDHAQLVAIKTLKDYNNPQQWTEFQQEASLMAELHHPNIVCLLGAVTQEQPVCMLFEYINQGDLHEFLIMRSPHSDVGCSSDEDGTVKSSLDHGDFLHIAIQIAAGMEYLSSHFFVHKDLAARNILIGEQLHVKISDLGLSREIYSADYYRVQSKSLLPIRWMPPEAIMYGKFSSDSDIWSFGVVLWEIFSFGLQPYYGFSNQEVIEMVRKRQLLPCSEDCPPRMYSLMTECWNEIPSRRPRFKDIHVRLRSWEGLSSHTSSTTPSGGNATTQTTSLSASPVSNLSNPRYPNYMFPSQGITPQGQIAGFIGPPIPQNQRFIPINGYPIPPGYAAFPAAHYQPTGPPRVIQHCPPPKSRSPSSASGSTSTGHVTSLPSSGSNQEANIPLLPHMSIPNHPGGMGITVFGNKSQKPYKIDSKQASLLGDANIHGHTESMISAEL

[3] = target: T3, human CD3 on Jurkat cells (human, UniProt P09693 23-182; P04234 22-171; P07766 23-207); test: flow cytometry on Jurkat cells (1 ug/mL construct on ice, washed, then 37 C)
T3 construct: GenBank NP_000064.1, NP_000723.1, NP_000724.1
T3 sequence (P09693 23-182 limits assumed, chain 1 of 3): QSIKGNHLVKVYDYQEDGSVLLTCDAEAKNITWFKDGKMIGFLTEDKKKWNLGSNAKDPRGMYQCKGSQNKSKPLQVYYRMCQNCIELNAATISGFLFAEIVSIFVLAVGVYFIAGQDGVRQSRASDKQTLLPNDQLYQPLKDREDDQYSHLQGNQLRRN
T3 sequence (P04234 22-171 limits assumed, chain 2 of 3): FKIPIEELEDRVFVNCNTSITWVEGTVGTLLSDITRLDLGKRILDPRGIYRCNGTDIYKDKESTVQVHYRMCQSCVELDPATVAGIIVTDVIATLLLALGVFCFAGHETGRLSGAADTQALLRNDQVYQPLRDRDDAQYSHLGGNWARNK
T3 sequence (P07766 23-207 limits assumed, chain 3 of 3): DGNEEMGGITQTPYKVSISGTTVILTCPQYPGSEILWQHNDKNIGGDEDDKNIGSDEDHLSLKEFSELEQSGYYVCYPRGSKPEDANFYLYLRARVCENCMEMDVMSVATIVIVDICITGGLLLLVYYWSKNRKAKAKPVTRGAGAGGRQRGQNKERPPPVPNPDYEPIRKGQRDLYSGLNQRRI
Protocol: (§1) To quantitate CD3 binding, 2.5E5 Jurkat cells were used for each condition. A 2× stock of the cells was made by resuspending the cells to 5E6/mL by placing in 50 μL of PBS with 2% FBS. Next, the cells were diluted with an equal volume of 2× stock of the test bispecific binding molecule. The cells and antibody were co-incubated on ice for 20 min. The cells were then washed 3 times with 300 μL of FACS buffer and were resuspended in 100 μL of goat anti-human Fc-PE conjugate antibody (Invitrogen cat. #12499882) at 1:500 dilution and incubated on ice with reduced light for 20 min. The cells were then washed 3 times with 300 μL of FACS buffer and fixed with 2% paraformaldehyde for 10 min at 25° C. The cells were washed 2 times with 300 μL of FACS buffer and analyzed on a Miltenyi MACSQuant Analyzer.
To quantitate internalization of the bispecific binding molecules, 2.5E5 Jurkat cells were co-incubated with 1 μg/mL of the bispecific binding molecule on ice for 20 min. The cells were then washed 3 times 300 μL with ice-cold FACS buffer and were resuspended in culture media and incubated at 37° C. At various times, cells were removed, washed with 300 μL ice-cold FACS buffer and processed as described above.

[4] = target: T1, recombinant human ROR1 extracellular …; test: ELISA, immobilised ROR1 ECD, construct titrated
Protocol: A 96-well Costar-3366 plate was coated with 50 μL/well of 2 μg/mL […] (Acro Biosystems cat. #R01-H522Y) in PBS overnight at 4° C. The plate was rinsed once with PBS containing 0.05% Tween 20 (PBS-T) and blocked with 100 μL/well of 5% non-fat milk in PBS (5% M-P) for 1 h at 25° C. Antibody samples were serially diluted 2-fold using 5% M-P and were incubated for 1 h at 25° C. (50 μL/well). The plate was washed three times with PBS-T and 50 μL/well anti-human kappa, HRP conjugate (Southern Biotech cat. #2060-05) diluted 10,000-fold in 5% M-P was added for 1 h at 25° C. The plate was washed three times with PBS-T, developed with 50 μL/well 1-Step Ultra TMB-ELISA (Thermo Scientific cat. #34028). The reaction was terminated by the addition of 2 N H₂SO₄ and the A450 was determined using a Spectramax plate reader.
Next, the binding of bispecific binding molecules to ROR was characterized by ELISA using recombinantly-expressed extracellular domain of RORL. ROR was immobilized on a microtiter plate, the bispecific binding molecules were titrated, and binding was quantitated with an anti-human kappa-HRP reagent. Consistent with the cell binding data, all constructs bound ROR1 in a concentration-dependent manner (FIG. 6). Moreover, monovalent ROR1 constructs 13-15 bound less tightly than all but two of the bivalent constructs.

[5] = target: T4, soluble biotinylated human ROR1 extracellular domain (human, UniProt Q01973 30-406, biotinylated with EZ-Link Sulfo-NHS-LC-Biotin at a 1:5 molar ratio); test: ELISA, captured construct, biotinylated ROR1 titrated
T4 construct: Acro Biosystems cat; whole entry named; also called b-ROR1; soluble b-ROR1
T4 sequence (Q01973 30-406 limits assumed): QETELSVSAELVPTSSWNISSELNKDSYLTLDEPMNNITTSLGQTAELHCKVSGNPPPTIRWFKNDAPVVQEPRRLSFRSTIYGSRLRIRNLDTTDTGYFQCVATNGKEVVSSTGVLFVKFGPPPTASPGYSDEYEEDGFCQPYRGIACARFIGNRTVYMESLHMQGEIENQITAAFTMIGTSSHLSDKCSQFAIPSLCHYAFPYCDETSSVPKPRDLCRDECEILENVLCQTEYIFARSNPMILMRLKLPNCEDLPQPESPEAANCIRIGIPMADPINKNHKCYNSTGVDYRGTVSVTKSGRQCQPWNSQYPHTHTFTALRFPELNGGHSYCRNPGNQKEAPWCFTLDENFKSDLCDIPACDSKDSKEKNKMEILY
Protocol: To measure the binding of bispecific constructs to soluble ROR1, a 96-well Costar-3366 plate was coated with 50 μL/well of 2 μg/mL goat anti-human kappa (Southern Biotech cat. #2060-01) in PBS overnight at 4° C. The plate was rinsed once with PBS-T, blocked with 100 μL/well 5% M-P for 1 h at 25° C., rinsed once with PBS-T, and 2 μg/mL of the bispecific binding molecule was added and incubated for 1 h at 25° C. The plate was washed three times with PBS-T. Biotinylated ROR1 was diluted serially, 3-fold in 5% M-P and was incubated for 1 h at 25° C. (50 μL/well). The plate was washed three times with PBS-T. To detect the binding of b-ROR1, 50 μL/well Neutravidin-HRP (Pierce cat. #31030) diluted 1:5000 in 1% BSA-PBS was added for 1 h at 25° C. The plate was washed three times with PBS-T, then developed with 50 μL/well 1-Step Ultra TMB-ELISA (Thermo Scientific cat. #34028). The reaction was terminated by the addition of 2 N H₂SO₄ and the A450 was determined using a Spectramax plate reader.
The stronger binding observed with bivalent constructs versus monovalent constructs in cell assays and ELISAs in which the antigen is immobilized is consistent with an avidity effect. To determine if this was the case, binding to soluble monomeric ROR1 was assessed by immobilizing the bispecific binding molecules on a microtiter plate coated with goat anti-human kappa antibody and titrating biotinylated RORL. All bispecific binding molecules were active in this format (FIG. 7), and in most cases, there were no notable differences between monovalent and bivalent constructs.

[6] = target: T3, human CD3 on Jurkat cells; test: flow cytometry on Jurkat cells
Protocol: as §1

human ROR1 on cells [7] = target: T2, human ROR1 on cells; test: flow cytometry on ROR1-transfected MEC cells after 24 h incubation with the construct
human ROR1 on cells [8] = target: T2, human ROR1 on cells; test: flow cytometry on JeKo-1 cells
Protocol: ROR1 binding was quantitated using both ROR1-transfected MEC cells and JeKo-1 cells. For each condition, 2.5E5 cells were used. The cells were placed in 50 μL of PBS with 2% FBS. Next, the cells were diluted with an equal volume of 2× stock of the test bispecific binding molecule. The cells and antibody were co-incubated on ice for 20 min. The cells were then washed 3 times with 300 μL of FACS buffer and were resuspended in 100 μL of anti-human Fc-PE conjugate antibody (Invitrogen cat. #12499882) and incubated on ice with reduced light for 20 min. Subsequently, the cells were washed 3 times with 300 μL of FACS buffer and fixed with 2% paraformaldehyde for 10 min at 25° C. The cells then were washed 2 times with 300 μL of FACS buffer and analyzed on a Miltenyi MACSQuant Analyzer.
The influence of ROR expression levels on binding of the bispecific constructs was assessed by flow cytometry using JeKo-1 cells. JeKo-1 cells express lower levels of ROR (˜13,000 copies/cell) than the ROR1-transfected MEC cells (˜56,000 copies/cell). All constructs bound JeKo-1 cells (FIG. 5). […] Specifically, monovalent ROR1 constructs generally bound more weakly than the bivalent constructs (FIG. 5, Panel A, compare constructs 14 and 15 with other constructs; FIG. 5, Panel C, compare constructs 15-17 with other constructs).

T1 sequence (Q01973 30-406 limits assumed): as above

B1: parental Ab1 Fab (WT) (Fab, V domains shown)
VH: QVQLQESGPGLVKPSQTLSLTCTVSGYAFTAYNIHWVRQAPGQGLEWMGSFDPYDGGSSYNQKFKDRLTISKDTSKNQVVLTMTNMDPVDTATYYCARGWYYFDYWGHGTLVTVSS
VL: DIVMTQTPLSLPVTPGEPASISCRASKSISKYLAWYQQKPGQAPRLLIYSGSTLQSGIPPRFSGSGYGTDFTLTINNIESEDAAYYFCQQHDESPYTFGEGTKVEIKR
notes: Tested as Fab; also called parental Fab; parental antibody
EC50 (read off the curve) [1]: ~6000 pM

B2: Bispecific construct 8 (bispecific antibody, human IgG1, kappa)
heavy: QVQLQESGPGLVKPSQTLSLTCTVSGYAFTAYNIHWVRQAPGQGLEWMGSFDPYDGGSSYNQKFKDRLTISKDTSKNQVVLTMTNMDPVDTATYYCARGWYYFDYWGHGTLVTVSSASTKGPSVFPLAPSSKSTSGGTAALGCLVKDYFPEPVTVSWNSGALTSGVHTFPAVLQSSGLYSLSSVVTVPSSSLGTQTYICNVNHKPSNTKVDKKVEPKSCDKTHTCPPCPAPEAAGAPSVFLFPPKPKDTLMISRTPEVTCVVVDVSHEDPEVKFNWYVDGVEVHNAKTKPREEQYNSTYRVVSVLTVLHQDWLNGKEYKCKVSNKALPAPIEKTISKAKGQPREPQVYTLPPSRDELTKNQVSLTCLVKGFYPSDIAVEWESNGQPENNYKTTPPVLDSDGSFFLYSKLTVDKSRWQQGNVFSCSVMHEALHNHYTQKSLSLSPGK
light: DIVMTQTPLSLPVTPGEPASISCRASKSISKYLAWYQQKPGQAPRLLIYSGSTLQSGIPPRFSGSGYGTDFTLTINNIESEDAAYYFCQQHDESPYTFGEGTKVEIKRTVAAPSVFIFPPSDEQLKSGTASVVCLLNNFYPREAKVQWKVDNALQSGNSQESVTEQDSKDSTYSLSSTLTLSKADYEKHKVYACEVTHQGLSSPVTKSFNRGECGGGGSGGGGSQVQLVQSGAEVKKPGASVKVSCKASGYTFTRYTMHWVRQAPGQGLEWMGYINPSRGYTNYNQKFKDRVTLTTDKSSSTAYMELSSLRSEDTAVYYCARYYDDHYSLDYWGQGTLVTVSSGGGGSGGGGSGGGGSGGGGSDIQMTQSPSSLSASVGDRVTITCSASSSVSYMNWYQQKPGKAPKRLIYDTSKLASGVPSRFSGSGSGTDFTLTISSLQPEDFATYYCQQWSSNPFTFGQGTKLEIK
notes: anti-CD3 scFv Ab9 (OKT3-based); ROR1 arm Ab1; valency 2/2
EC50, LDH release, A549 (human ROR1 on cells [2]): 3.39 ng/mL and 17.1 pM | EC50, LDH release, A4573 (human ROR1 on cells [2]): 1.2 ng/mL and 6.1 pM | EC50, LDH release, JeKo-1 (human ROR1 on cells [2]): 1.62 ng/mL and 8.1 pM | EC50, LDH release, Mino (human ROR1 on cells [2]): 0.95 ng/mL and 4.8 pM | EC50, LDH release, Saos-2 (human ROR1 on cells [2]): 2.92 ng/mL and 14.7 pM | Max. LDH Release, Mino (human ROR1 on cells [2]): 53% | binding result [3]: binds | Kd [4]: 98 pM | Kd [5]: 151 pM

B3: Bispecific construct 1 (bispecific antibody, human IgG1, kappa)
heavy: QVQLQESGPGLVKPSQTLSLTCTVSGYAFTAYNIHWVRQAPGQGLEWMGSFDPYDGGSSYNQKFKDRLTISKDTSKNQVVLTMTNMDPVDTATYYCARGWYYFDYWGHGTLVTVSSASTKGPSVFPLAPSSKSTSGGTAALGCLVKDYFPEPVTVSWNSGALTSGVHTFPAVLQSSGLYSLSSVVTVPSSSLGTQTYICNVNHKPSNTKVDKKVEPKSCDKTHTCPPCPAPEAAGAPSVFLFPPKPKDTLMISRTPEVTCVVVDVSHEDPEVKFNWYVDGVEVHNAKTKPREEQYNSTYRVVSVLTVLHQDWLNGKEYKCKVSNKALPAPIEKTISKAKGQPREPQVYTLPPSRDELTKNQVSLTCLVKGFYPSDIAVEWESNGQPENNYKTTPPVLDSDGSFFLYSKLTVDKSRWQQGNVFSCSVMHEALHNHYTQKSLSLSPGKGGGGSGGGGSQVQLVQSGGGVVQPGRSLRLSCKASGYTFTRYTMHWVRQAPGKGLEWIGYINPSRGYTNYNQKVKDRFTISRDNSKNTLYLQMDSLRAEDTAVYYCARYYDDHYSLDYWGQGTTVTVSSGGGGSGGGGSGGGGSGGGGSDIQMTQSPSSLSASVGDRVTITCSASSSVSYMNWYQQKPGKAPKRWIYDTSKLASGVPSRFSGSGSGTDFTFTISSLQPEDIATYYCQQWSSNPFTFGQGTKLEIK
light: DIVMTQTPLSLPVTPGEPASISCRASKSISKYLAWYQQKPGQAPRLLIYSGSTLQSGIPPRFSGSGYGTDFTLTINNIESEDAAYYFCQQHDESPYTFGEGTKVEIKRTVAAPSVFIFPPSDEQLKSGTASVVCLLNNFYPREAKVQWKVDNALQSGNSQESVTEQDSKDSTYSLSSTLTLSKADYEKHKVYACEVTHQGLSSPVTKSFNRGEC
notes: ROR1 arm Ab1; CD3 valency 2, ROR1 valency 2
binding result [6]: binds | EC50 (read off the curve) (human ROR1 on cells [7]): ~0.003 µg/mL | EC50, LDH release, ROR1-transfected MEC (human ROR1 on cells [2]): 11 ng/mL and 55 pM | Max. LDH Release, ROR1-transfected MEC (human ROR1 on cells [2]): 42% | Kd [4]: 200 pM | Kd [5]: 193 pM

B4: Bispecific construct 2 (bispecific antibody, human IgG1, kappa)
heavy: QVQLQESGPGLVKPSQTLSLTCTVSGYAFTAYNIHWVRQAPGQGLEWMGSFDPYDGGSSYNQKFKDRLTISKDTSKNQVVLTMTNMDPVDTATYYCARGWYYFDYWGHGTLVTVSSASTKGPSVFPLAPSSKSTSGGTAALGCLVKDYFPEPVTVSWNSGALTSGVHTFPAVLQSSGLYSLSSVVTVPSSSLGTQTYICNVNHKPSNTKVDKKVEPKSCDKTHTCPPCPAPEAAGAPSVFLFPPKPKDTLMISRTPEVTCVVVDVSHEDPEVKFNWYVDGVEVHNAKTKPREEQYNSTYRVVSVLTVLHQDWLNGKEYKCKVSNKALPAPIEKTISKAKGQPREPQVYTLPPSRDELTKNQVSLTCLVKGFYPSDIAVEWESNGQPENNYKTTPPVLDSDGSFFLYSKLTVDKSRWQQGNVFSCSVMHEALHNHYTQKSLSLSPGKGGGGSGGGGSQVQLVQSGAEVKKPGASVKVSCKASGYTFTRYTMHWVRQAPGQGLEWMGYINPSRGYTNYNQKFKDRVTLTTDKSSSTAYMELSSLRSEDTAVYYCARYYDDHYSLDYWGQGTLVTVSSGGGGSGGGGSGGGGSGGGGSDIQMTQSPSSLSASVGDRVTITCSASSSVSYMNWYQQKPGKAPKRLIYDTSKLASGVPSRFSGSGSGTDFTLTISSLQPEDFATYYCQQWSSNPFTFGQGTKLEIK
light: B3 light
notes: as for B2
EC50, LDH release, ROR1-transfected MEC (human ROR1 on cells [2]): 5 ng/mL and 25 pM | Max. LDH Release, ROR1-transfected MEC (human ROR1 on cells [2]): 50% | binding result [3]: binds | EC50 (read off the curve) (human ROR1 on cells [8]): ~0.02 µg/mL | Kd [4]: 41 pM | Kd [5]: 129 pM

B5: Bispecific construct 5 (bispecific antibody, human IgG1, kappa)
heavy: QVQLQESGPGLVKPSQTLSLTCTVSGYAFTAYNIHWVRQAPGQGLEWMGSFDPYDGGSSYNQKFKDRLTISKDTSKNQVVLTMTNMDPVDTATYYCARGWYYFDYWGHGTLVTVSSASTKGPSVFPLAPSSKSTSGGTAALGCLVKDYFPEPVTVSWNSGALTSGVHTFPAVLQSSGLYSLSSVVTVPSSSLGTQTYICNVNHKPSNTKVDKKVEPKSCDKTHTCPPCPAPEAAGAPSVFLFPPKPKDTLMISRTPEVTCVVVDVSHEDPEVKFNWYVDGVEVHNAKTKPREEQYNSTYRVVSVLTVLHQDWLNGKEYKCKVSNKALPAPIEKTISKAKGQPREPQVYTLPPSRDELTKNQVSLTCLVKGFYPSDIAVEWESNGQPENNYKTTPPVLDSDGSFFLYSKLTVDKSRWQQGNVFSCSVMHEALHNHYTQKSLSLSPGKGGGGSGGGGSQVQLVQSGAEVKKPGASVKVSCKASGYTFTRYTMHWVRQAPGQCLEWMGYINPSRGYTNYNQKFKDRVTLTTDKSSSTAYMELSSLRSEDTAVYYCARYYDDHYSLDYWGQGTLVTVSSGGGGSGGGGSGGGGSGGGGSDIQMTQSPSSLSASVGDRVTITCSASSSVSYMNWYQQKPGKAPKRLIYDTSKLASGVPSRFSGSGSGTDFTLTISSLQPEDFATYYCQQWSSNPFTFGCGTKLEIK
light: B3 light
notes: disulfide-stabilized anti-CD3 scFv Ab9; ROR1 arm Ab1; valency 2/2
binding result [6]: binds | EC50 (read off the curve) (human ROR1 on cells [8]): ~0.02 µg/mL | Kd [4]: 55 pM | Kd [5]: 70 pM

B6: Bispecific construct 7 (bispecific antibody, human IgG1, kappa)
heavy: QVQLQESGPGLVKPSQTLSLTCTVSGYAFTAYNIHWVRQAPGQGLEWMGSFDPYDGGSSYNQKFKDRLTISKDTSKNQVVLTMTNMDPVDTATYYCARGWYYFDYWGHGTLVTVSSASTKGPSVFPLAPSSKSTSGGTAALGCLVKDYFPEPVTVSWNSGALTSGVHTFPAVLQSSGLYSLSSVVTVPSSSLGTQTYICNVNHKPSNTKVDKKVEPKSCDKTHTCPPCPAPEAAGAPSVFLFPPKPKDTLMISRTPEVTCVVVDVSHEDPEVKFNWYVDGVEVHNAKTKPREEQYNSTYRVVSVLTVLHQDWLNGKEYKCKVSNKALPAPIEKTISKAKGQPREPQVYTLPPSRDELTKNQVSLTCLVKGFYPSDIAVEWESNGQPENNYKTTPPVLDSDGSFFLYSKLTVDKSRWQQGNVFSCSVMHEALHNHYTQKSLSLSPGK
light: DIVMTQTPLSLPVTPGEPASISCRASKSISKYLAWYQQKPGQAPRLLIYSGSTLQSGIPPRFSGSGYGTDFTLTINNIESEDAAYYFCQQHDESPYTFGEGTKVEIKRTVAAPSVFIFPPSDEQLKSGTASVVCLLNNFYPREAKVQWKVDNALQSGNSQESVTEQDSKDSTYSLSSTLTLSKADYEKHKVYACEVTHQGLSSPVTKSFNRGECGGGGSGGGGSQVQLVQSGGGVVQPGRSLRLSCKASGYTFTRYTMHWVRQAPGKGLEWIGYINPSRGYTNYNQKVKDRFTISRDNSKNTLYLQMDSLRAEDTAVYYCARYYDDHYSLDYWGQGTTVTVSSGGGGSGGGGSGGGGSGGGGSDIQMTQSPSSLSASVGDRVTITCSASSSVSYMNWYQQKPGKAPKRWIYDTSKLASGVPSRFSGSGSGTDFTFTISSLQPEDIATYYCQQWSSNPFTFGQGTKLEIK
notes: ROR1 arm Ab1; valency 2/2
binding result [6]: binds | EC50 (read off the curve) (human ROR1 on cells [7]): ~0.005 µg/mL | EC50, LDH release, Mino (human ROR1 on cells [2]): 0.97 ng/mL and 4.9 pM | EC50, LDH release, ROR1-transfected MEC (human ROR1 on cells [2]): 1.3 ng/mL and 6.5 pM | Max. LDH Release, Mino (human ROR1 on cells [2]): 50% | Max. LDH Release, ROR1-transfected MEC (human ROR1 on cells [2]): 55% | Kd [4]: 50 pM | Kd [5]: 118 pM
